Results reported in US20120039878A1.

What was measured:
[1] = biological target: the 3 mAbs (2A4, 8G9 and 7D8) as a group; assay: Competition ELISA; told for the three mAbs together
[2] = biological target: murine monoclonal antibody 2A4 (ATCC Accession Number PTA-9662); assay: Competition ELISA; human AA amyloid in solution competing with adsorbed mouse AA (AEF) for mAb 2A4
[3] = biological target: murine monoclonal antibody 7D8 (ATCC Accession Number PTA-9468); assay: Competition ELISA; human AA amyloid in solution competing with adsorbed mouse AA (AEF) for mAb 7D8
murine monoclonal antibody 7D8 (ATCC Accession Number PTA-9468), sequence (VL, as listed by the source, chain 1 of 2): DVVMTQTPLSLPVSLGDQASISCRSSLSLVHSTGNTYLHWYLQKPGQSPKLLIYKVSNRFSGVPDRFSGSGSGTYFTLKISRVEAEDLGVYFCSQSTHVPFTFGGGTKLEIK
murine monoclonal antibody 7D8 (ATCC Accession Number PTA-9468), sequence (VH, as listed by the source, chain 2 of 2): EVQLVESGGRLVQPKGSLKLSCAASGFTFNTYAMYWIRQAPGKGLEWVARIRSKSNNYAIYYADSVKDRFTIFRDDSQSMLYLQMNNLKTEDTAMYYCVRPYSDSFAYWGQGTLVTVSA

[4] = biological target: murine monoclonal antibody 8G9; assay: Competition ELISA; human AA amyloid in solution competing with adsorbed mouse AA (AEF) for mAb 8G9
murine monoclonal antibody 8G9, sequence (VL, as listed by the source, chain 1 of 2): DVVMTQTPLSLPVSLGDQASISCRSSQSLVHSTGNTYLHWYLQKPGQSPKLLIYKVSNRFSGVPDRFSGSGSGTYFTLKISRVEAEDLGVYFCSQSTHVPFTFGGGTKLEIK
murine monoclonal antibody 8G9, sequence (VH, as listed by the source, chain 2 of 2): as the sequence (VH, as listed by the source, chain 2 of 2) above

murine monoclonal antibody 2A4 (ATCC Accession Number PTA-9662), sequence (VH, as listed by the source, chain 2 of 2): as above

B1: human AA amyloid (human renal AA amyloid extract; AA deposits in human tissue) (protein, UniProt P0DJI8 19-94, looked up)
Amyloid protein A: RSFFSFLGEAFDGARDMWRAYSDMREANYIGSDKYFHARGNYDAAKRGPGGAWAAEVITDARENIQRFFGHGAEDS
modifications: Amyloid protein A amyloid fibrils
- fold of IC50 against murine AEF in solution [1]: 6 to 44 fold
- IC50 [2]: > 212 µg/mL
- IC50 [3]: > 881 µg/mL
- IC50 [4]: > 120 µg/mL
